Measured values published in patent US20180179267A1 (published 2018).

Tests used:
LukGH_H19 = target: T1, LukGH_H19; assay: ForteBio
T1 chain 1: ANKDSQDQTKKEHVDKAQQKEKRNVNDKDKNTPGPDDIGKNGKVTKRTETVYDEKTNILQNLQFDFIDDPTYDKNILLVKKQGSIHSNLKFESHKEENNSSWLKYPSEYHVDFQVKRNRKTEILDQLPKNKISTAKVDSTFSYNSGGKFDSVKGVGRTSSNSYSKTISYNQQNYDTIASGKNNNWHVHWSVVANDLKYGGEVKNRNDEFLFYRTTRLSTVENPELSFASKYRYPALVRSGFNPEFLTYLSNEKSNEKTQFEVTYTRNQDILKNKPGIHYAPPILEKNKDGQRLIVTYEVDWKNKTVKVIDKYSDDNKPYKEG
T1 chain 2: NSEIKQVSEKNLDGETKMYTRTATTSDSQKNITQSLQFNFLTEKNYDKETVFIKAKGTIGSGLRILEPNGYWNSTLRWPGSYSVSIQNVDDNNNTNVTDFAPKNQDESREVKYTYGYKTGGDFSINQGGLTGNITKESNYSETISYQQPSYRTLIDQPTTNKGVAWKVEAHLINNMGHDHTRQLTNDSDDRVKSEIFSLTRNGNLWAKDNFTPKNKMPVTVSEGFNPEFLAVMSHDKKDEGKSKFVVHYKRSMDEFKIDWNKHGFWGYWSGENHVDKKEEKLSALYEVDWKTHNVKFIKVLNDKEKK

LukGH_MSHR1132 = target: T2, LukGH_MSHR1132; assay: ForteBio
T2 chain 1: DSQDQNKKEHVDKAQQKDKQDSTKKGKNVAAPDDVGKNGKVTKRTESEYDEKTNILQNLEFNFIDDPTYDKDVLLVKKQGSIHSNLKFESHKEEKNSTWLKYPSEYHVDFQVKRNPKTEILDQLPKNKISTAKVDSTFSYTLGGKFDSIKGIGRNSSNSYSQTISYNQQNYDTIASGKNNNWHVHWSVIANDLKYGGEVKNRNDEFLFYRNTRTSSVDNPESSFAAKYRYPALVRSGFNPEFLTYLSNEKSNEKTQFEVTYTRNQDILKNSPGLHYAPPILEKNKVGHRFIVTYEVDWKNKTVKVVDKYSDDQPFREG
T2 chain 2: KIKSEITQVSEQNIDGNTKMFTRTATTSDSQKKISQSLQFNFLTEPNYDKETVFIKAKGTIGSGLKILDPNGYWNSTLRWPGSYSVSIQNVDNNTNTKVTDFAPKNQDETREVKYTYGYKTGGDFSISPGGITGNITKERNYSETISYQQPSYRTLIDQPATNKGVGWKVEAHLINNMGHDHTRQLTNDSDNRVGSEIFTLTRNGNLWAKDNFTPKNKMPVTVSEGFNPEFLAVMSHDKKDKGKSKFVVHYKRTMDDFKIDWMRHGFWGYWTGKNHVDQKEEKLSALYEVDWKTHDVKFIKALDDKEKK

LukG_TCH1516 [1] = target: T3, LukG_TCH1516; assay: ForteBio
T3 chain: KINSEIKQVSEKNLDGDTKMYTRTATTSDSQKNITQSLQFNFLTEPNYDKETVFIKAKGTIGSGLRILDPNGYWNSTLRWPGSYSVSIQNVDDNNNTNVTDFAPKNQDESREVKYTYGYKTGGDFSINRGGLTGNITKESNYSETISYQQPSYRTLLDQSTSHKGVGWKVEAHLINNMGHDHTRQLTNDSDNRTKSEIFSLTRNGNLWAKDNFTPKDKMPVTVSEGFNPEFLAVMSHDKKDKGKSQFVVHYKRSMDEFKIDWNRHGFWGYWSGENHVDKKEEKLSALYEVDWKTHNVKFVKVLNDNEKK

LukGH_MRSA252 = target: T4, LukGH_MRSA252; assay: ForteBio
T4 chain 1: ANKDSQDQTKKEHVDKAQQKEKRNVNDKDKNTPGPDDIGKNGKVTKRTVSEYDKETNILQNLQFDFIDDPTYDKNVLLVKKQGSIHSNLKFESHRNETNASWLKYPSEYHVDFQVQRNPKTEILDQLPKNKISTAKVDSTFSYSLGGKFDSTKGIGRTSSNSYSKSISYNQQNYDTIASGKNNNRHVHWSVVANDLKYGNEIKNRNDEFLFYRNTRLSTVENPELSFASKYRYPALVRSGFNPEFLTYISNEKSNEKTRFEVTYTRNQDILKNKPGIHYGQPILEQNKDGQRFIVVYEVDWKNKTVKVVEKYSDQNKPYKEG
T4 chain 2: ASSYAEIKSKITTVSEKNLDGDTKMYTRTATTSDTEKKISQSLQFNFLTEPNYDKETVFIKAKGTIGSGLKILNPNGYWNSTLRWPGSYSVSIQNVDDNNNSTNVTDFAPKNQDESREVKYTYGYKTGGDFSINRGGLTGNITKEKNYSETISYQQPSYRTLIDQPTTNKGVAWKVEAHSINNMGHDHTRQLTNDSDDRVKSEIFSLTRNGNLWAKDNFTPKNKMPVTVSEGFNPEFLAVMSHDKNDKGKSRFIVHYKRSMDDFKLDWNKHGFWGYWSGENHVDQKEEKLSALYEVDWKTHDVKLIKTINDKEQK

[2] = target: T5, LukGH of S. aureus USA300 TCH1516 (UniProt Q2FFA2 28-351; P21224 30-338); assay: ForteBio
T5 chain 1: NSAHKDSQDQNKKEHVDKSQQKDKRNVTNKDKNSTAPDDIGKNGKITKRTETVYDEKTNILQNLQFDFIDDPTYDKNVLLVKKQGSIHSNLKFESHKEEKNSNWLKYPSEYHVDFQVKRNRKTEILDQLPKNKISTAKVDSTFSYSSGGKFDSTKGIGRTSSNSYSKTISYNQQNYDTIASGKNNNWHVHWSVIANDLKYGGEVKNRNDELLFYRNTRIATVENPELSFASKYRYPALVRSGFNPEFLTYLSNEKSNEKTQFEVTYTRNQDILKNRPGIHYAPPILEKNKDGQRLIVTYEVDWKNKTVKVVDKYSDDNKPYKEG
T5 chain 2: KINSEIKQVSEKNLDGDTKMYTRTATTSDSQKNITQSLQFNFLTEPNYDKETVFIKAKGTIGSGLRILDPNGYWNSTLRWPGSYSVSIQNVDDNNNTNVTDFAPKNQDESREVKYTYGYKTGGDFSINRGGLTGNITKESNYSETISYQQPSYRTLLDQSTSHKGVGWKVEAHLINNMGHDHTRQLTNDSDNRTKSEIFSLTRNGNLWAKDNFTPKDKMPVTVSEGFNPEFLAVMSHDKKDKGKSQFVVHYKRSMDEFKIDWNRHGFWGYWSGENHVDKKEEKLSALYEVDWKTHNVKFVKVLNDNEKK

LukG_TCH1516 [3] = target: T3, LukG_TCH1516; assay: MSD; Fab
[4] = target: T5, LukGH of S. aureus USA300 TCH1516; assay: MSD; Fab

Row | Binder | Kd (LukGH_H19) | Kd (LukGH_MSHR1132) | Kd (LukG_TCH1516 [1]) | Kd (LukGH_MRSA252) | Kd [2] | Kd (LukG_TCH1516 [3]) | Kd [4]
1 | AB-31 (antibody, V domains shown) VH: EVQLVESGGGLVQPGRSLRLSCAASGFTFYDYNMHWVRQAPGKGLEWVSGISWNSGSIAYADSVKGRFTISRDNAKNSLYLQMNSLRAEDTALYYCAKAQKGTAFDIWGQGTMVTVSS VL: DIQMTQSPSSLSASVGDRVTITCQASQDITNYLNWYQQKPGKAPKLLIYDASNLETGVPSRFSGSGSGTDFTFTISSLQPEDIATYYCQQYPVYPPTFGGGTKVEIKR | 0.24 nM | 0.25 nM | 9.7 nM | 0.25 nM | < 0.1 nM | 0.12 nM | 0.00052 nM
2 | AB-30-3 (antibody, V domains shown) VH: QVQLVQSGAEVKKPGSSVKVSCKASGGTFSSYAISWVRQAPGQGLEWMGVIEPIFGFANYAQKFQGRVTITADESTSTAYMELSSLRSEDTAVYYCARDAGCSSTSCHKDVYFDYWGQGTLVTVSS VL: DIQMTQSPSSLSASVGDRVTITCRASQSISSYLNWYQQKPGKAPKLLIYGASSLQSGVPSRFSGSGSGTDFTLTISSLQPEDFATYYCQQAYYPPWTFGGGTKVEIKR | 0.22 nM | 0.39 nM | 15.5 nM | 0.28 nM | 0.24 nM | 0.046 nM | 0.0005 nM
